In patent US7462695B2, “Insect chymotrypsin and inhibitors thereof” (Hexima Limited, priority 2003, dated 2008):
Blank lines part the entries; values can stand above or below the molecule they belong to.

Tests used:
[1] = test system: chymotrypsin activity in unfractionated gut extracts from H. punctigera; test: Chymotrypsin activity in unfractionated gut extracts with proteinase inhibitors (FIG. 3); type: biochemical, Helicoverpa punctigera; conditions: larvae raised on haricot bean diet without added proteinase inhibitors; substrate SAAPFpNA
Protocol: FIG. 3 is a graphical representation showing the effect of various proteinase inhibitors on the chymotrypsin activity in unfractionated gut extracts from H. punctigera. Proteinase inhibitors were mixed with 1 μg of protein from an unfractionated gut extract before incubation with the chymotrypsin substrate N-succinyl-Ala-Ala-Pro-Phe-p-nitroanilide. Inhibition is expressed as a percentage of the total activity in the control samples.
Fourth-instar larvae were killed using ethyl-acetate prior the removal of individual gut which were then homogenized in a mortar and pestle in an equal amount [(w/v)] of 50 mM Tris-HCl, pH 8.0 containing 100 μM benzamidine. Insoluble material was removed by centrifugation at 20,000 rpm for 15 min at 4° C. and total protein concentration determined using the Bradford method (Bradford, Anal Biochem 72: 248-254, 1976) with reagents from BioRad and BSA as a standard.
Unfractionated gut extract containing approximately 1 μg of buffer soluble protein was added to 10 μL CAPS buffer (0.5 M, 3-[cyclohexylamino]-1-propane-sulfonic acid, pH 10) and made to a final volume of 100 μL in individual wells of a 96 well microtiter plate. Proteinase inhibitors were added over a range of concentrations and incubated for 15 min at 25° C. Bovine chymotrypsin (100 ng) was used as a positive control, both for activity and inhibition. The chromogenic artificial substrate SAAPFpNA (N-Succinyl-L-alanyl-L-alanyl-L-prolyl-L-phenylalanine 4-nitroanilide) was then added to a final concentration of 1 mM and hydrolysis of the substrate was measured at 405 nm using the SpectraMax 250 microtiter plate reader (Molecular Devices).

[2] = test system: chymotrypsin activity in gut extracts of H. punctigera larvae; test: Inhibition of chymotrypsin activity in individual larval gut extracts (FIG. 2F); type: biochemical, Helicoverpa punctigera; conditions: 80 nM inhibitor; SAAPFpNA substrate
Excerpt: (§1) FIG. 2 is a graphical representation showing growth of H. punctigera larvae fed on either low protein haricot bean artificial diet or cotton leaf artificial diet, in the presence or absence of 0.26% (w/v) NaPIs. Weight gain (mg) was monitored for 21 days. […] (A) Growth of larvae. (B) Relative size of larvae at 21 days after feeding on cotton artificial diet, in the presence or absence of 0.26% NaPIs. […] (C) The effect of NaPIs on gut trypsin and chymotrypsin activity. When each H. punctigera larva reached the late fourth/early fifth instar stage of development, the gut was removed and gut extract prepared prior to assays for trypsin and chymotrypsin activity. […] Trypsin activity was determined using BApNA substrate and chymotrypsin activity with SAAPFpNA substrate. Units of activity are expressed as change in absorbance at 405 nm/min/mg gut extract protein (±standard deviation). […] Trypsin activity was determined using BApNA substrate and chymotrypsin activity with SAAPFpNA substrate. Units of activity are expressed as change in absorbance at 405 nm/min/mg faecal extract protein (±standard deviation). […] Frass extracts were analysed on 15% ((w/v)) SDS-PAGE and transferred to nitrocellulose. […] Units of activity are expressed as substrate hydrolysis at 405 nm/min/mg extract protein (±standard deviation). […] Trypsin activity was determined using BApNA substrate. […]

[3] = test system: trypsin activity in gut extracts of H. punctigera larvae; test: Inhibition of trypsin activity in individual larval gut extracts by T1 (FIG. 2F); type: biochemical, Helicoverpa punctigera; conditions: 80 nM inhibitor; BApNA substrate
Excerpt: as §1

[4] = biological target: NaPI-insensitive chymotrypsins from H. punctigera (Helicoverpa punctigera, UniProt A0PGE0); test: Inhibition of NaPI-insensitive chymotrypsin (gut extract depleted of trypsins and NaPI-sensitive chymotrypsins); type: biochemical; conditions: pH 10, 30 min preincubation at 30° C.; for % Inhibition Insensitive: at maximum concentration tested
Protocol: The midgut was dissected from 100 fourth instar larvae and buffer soluble extracts were prepared. The gut extract was depleted of NaPI-sensitive proteases by passage through an affinity column composed of immobilized NAPI protein (C1, C2, T1-T4). […] This preparation of unbound material was used to study the pH optimum, substrate preference and effect of a range of proteinase inhibitors on the activity of the NaPI-insensitive proteinase. […] The best substrate for enzyme assays was determined using seven different commercial substrates.
(§2) Several proteinase inhibitors were tested for their ability to inhibit the activity of the insensitive chymotrypsins. The buffer used for all assays was 500 mM CAPS, 75 mM NaCl, 2.5 mM MgCl2 at pH 10.

[5] = biological target: bovine chymotrypsin (Bos taurus, UniProt P00766); test: Inhibition of bovine chymotrypsin; type: biochemical; conditions: 100 ng bovine chymotrypsin, pH 10; for % Inhibition BC: at maximum concentration tested
Protocol: as §2

[6] = test system: H. armigera larvae; test: Bioassay of H. armigera larvae on transgenic cotton expressing NaPI and StPotIA (FIG. 27); type: in vivo, Helicoverpa armigera
Protocol: FIG. 27 is a graphical representation showing growth of H. armigera larvae on transgenic cotton expressing NaPI and PotI. Transgenic cotton cv Coker 315 was used in bioassays with H. armigera. Thirty larvae were fed leaves of either the control untransformed Coker 315, transgenic line 1 (NaPI), transgenic line 2 (StpotIA) or transgenic plant 3 (NaPI×StPot1A). The weight of the larvae was measured at day 7 post-egg hatch. (A) Growth of larvae. At day 7, larvae fed leaves expressing NaPI were 86% of the weight of the control larvae fed untransformed leaves. Larvae fed leaves expressing StPotIA were 92% of the control and larvae fed leaves expressing both NAPI and StPotIA were 46% of the control. (B) The effect of ingestion of NAPI and PotI on gut trypsin and chymotrypsin activity. Gut from the larvae in each experiment were pooled and extracts prepared. All assays were performed in duplicate. Trypsin activity (black) was determined using BApNA substrate and chymotrypsin activity (grey) with SA2PFpNA substrate. Units of activity are expressed as change in absorbance at 405 nm/min/ug gut extract protein. Trypsin activity was reduced, relative to the control, in the extracts from larvae fed leaves expressing NaPI and NaPI+StPotIA. Chymotrypsin activity was elevated in extracts from larvae fed leaves expressing NAPI or NAPI+StPotIA and reduced in extracts from larvae fed StPotIA alone.
Two gene constructs (pHEX2 and pHEX6) were prepared for transformation of cotton (Gossypium hirsutum). pHEX2 consists of a 35S promoter driving the NaPI gene with a 35S terminator, inserted into the binary vector pBIN 19 (Bevan, Nucl. Acids Research, 12: 8711-8721, 1984). pHEX6 consists of a 35S promoter driving the StPotIA gene with a 35S terminator inserted into the binary vector pBIN 19.
Transgenic cotton was produced using the method of Umbek et al., Biotechnology, 5: 263-266, 1987) with modifications. Hypocotyl sections of cotton Cv Coker 315 were co-cultivated with Agrobacterium tumefaciens strain LBA 4404 containing the required binary vector. […]

[7] = test system: NaPI-insensitive chymotrypsins from H punctigera; test: Inhibition of NaPI-insensitive chymotrypsins by StPotIA and StPotIB (FIG. 26); type: biochemical, Helicoverpa punctigera
Protocol: FIG. 26 is a graphical representation showing inhibition of NaPI-insensitive chymotrypsin by bacterially expressed StPotIA and StPotIB. Inhibition of the NAPI-insensitive chymotrypsin from the gut of H. punctigera with purified PotI. (A) substrate SA2PFpNA, development time 30 min, (B) substrate SA2PLpNA, 30 min incubation. Mix of PotI isoforms from potato tuber (circle), StPotIA (square), StPotIB (triangle).
The inhibitory activity of StPotIA and StPotIB against the NaPI-insensitive chymotrypsins from H punctigera was determined by preincubating the NaPI-insensitive protease (10 μL) with varying amounts of StPotIA and StPotIB (0-600 nM) in 133 mM CAPS buffer, pH 10.0 at 30° C. in 96 well microtitre plates. After the 30 min preincubation, the incubation was started by the addition of substrate (SA2PFpNA, SA2PLpNA or SA2PMpNA) to a final concentration of 1 mM in a final volume of 100 μL. Absorbance was measured at 405 nm after 30 or 60 min.

Sequence of NaPI-insensitive chymotrypsins from H. punctigera (A0PGE0 entry or part of it): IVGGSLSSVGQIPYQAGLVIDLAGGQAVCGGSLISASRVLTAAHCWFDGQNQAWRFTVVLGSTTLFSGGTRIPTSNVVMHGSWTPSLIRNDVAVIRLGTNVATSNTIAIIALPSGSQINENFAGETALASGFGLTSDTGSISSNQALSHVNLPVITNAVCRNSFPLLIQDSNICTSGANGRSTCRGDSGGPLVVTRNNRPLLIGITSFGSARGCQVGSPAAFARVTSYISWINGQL

inhibition of gut chymotrypsin activity [1]: 70%
Molecule: C1: 6 kDa chymotrypsin inhibitor monomer released from the N. alata PI precursor (SEQ ID NO:23) (DRICTNCCAGTKGCKYFSDDGTFVCEGESDPRNPKACTLNCDPRIAYGVCPRSEEKKN; listed as Nicotiana alata)
inhibition of chymotrypsin activity, extracts of control larvae (in words) [2]: did not inhibit chymotrypsin activity in the extracts of six control larvae and only partially inhibited the gut chymotrypsins in the rest of the controls

Molecule: T1: 6 kDa trypsin inhibitor monomer released from the N. alata PI precursor (SEQ ID NO:24) (DRICTNCCAGTKGCKYFSDDGTFVCEGESDPRNPKACPRNCDPRIAYGICPLAEEKKN; listed as Nicotiana alata)
inhibition of trypsin activity, extracts from NaPI-fed larvae [3]: could not be inhibited | inhibition of trypsin activity, extracts of control larvae [3]: almost totally inhibited

Molecule: O=S(=O)(F)Cc1ccccc1 [PMSF, phenylmethyl sulphonyl fluoride, reference compound]
% Inhibition Insensitive [4]: 100%

Molecule: CC(=O)N[C@@H](CC(C)C)C(=O)N[C@@H](CC(C)C)C(=O)N[C@H](C=O)CCCNC(=N)N [Leupeptin, reference compound]
IC50 [5]: 2400 µM | % Inhibition BC [5]: 52%

% Inhibition Insensitive [4]: 100% | IC50 [4]: 0.24 µM | IC50 [5]: 0.06 µM | % Inhibition BC [5]: 100%
B1: Bowman Birk: soybean Bowman Birk inhibitor, purchased from Sigma-Aldrich (protein, UniProt P01055 40-110, looked up)
Bowman-Birk type proteinase …: DDESSKPCCDQCACTKSNPPQCRCSDMRLNSCHSACKSCICALSYPAQCFCVDITDFCYEPCKPSEDDKEN
inhibition of gut chymotrypsin activity (in words) [1]: failed to abolish all the chymotrysin activity

B2: StPotIA: PotI homolog cloned from wounded potato leaf RNA, alanine at P1 site (SEQ ID NO:81); E. coli expressed, His-tagged (protein)
chain: MESKFAHIIVFFLLATSFETLMARKEGDGSEVIKLLKESESESWCKGKQFWPELIGVPTKLAKEIIEKENPSINDVPIILNGTPVPADFRCNRVRLFDNILGDVVQIPRVA
modifications: His tag; potato
notes: E. coli expressed, His-tagged
larval weight as % of control larvae fed untransformed leaves ([6]; day 7 post-egg hatch, protein expressed in transgenic cotton leaves): 92% | effect on larval growth compared to the control (in words) ([6]; expression in cotton leaves): small inhibition of larval growth | gut chymotrypsin activity ([6]; pooled gut extracts, SA2PFpNA): reduced | inhibition of the NaPI-insensitive chymotrypsin (in words) [7]: good inhibitors | inhibition of SA2PMpNA hydrolysis ([7]; substrate SA2PMpNA): 40%
